Key:
[1] = target: hemagglutinin (HA) of influenza virus H1N1 A/Mississippi/03/01 274H (influenza A virus); experiment: cell-based or functional assay
[2] = target: hemagglutinin (HA) of influenza B/Florida/04/06 (Yamagata) (influenza B virus); experiment: cell-based or functional assay
[3] = target: hemagglutinin (HA) of influenza virus H1N1 A/HK/54/98 (influenza A virus); experiment: cell-based or functional assay
[4] = target: hemagglutinin (HA) of influenza virus H9N2 A/Great Cormorant/MP2934/04 (influenza A virus); experiment: cell-based or functional assay
[5] = target: hemagglutinin (HA) of influenza virus H6N1 A/Eurasian Wigeon/MPG1884/09 (influenza A virus); experiment: cell-based or functional assay
[6] = target: hemagglutinin (HA) of influenza virus H3N2 A/Aichi/2/68 (influenza A virus) (UniProt P03437); experiment: cell-based or functional assay
[7] = target: hemagglutinin (HA) of influenza virus H7N7 A/Common Teal/MPF139/07 (influenza A virus); experiment: cell-based or functional assay
[8] = target: hemagglutinin (HA) of influenza virus H3N2 A/Wisconsin/67/05 (influenza A virus); experiment: cell-based or functional assay
[9] = target: hemagglutinin (HA) of influenza virus H7N7 A/Netherlands/219/2003 (influenza A virus); experiment: cell-based or functional assay
[10] = target: hemagglutinin (HA) of influenza virus H3N2 A/Brisbane/10/07 (influenza A virus); experiment: cell-based or functional assay
[11] = target: hemagglutinin (HA) of influenza virus B/Malaysia/2506/04 (Victoria) (influenza B virus); experiment: cell-based or functional assay
[12] = target: hemagglutinin (HA) of influenza virus H3N2 A/HK/1/68-MA (influenza A virus); experiment: cell-based or functional assay
[13] = target: hemagglutinin (HA) of influenza virus H1N1 A/WSN/33 (influenza A virus) (UniProt P03454); experiment: cell-based or functional assay
[14] = target: hemagglutinin (HA) of influenza virus H12N5 A/Env/MPK659/09 (influenza A virus); experiment: cell-based or functional assay
[15] = target: hemagglutinin (HA) of influenza virus H1N1 A/Puerto Rico/8/34-MA (influenza A virus); experiment: cell-based or functional assay
[16] = target: hemagglutinin (HA) of influenza virus H2N2 A/Env/HK/MPU3156/05 (influenza A virus); experiment: cell-based or functional assay
[17] = target: hemagglutinin (HA) of influenza virus H7N9 A/Anhui/1/13 (influenza A virus); experiment: cell-based or functional assay
[18] = target: hemagglutinin (HA) of influenza virus H4N1 A/Northern Pintail/MPB1368/06 (influenza A virus); experiment: cell-based or functional assay
[19] = target: hemagglutinin (HA) of influenza virus B/Massachusetts/02/12 (Yamagata) (influenza B virus); experiment: cell-based or functional assay
[20] = target: hemagglutinin (HA) of influenza virus H1N1 A/California/07/09 (influenza A virus); experiment: cell-based or functional assay
[21] = target: hemagglutinin (HA) of influenza virus H3N2 A/Fukui/45/04 (influenza A virus); experiment: cell-based or functional assay
[22] = target: hemagglutinin (HA) of influenza virus H3N2 A/HK/1174/99 (influenza A virus); experiment: cell-based or functional assay
[23] = target: hemagglutinin (HA) of influenza virus H10N7 A/Chick/Germany/N/49 (influenza A virus); experiment: cell-based or functional assay
[24] = target: hemagglutinin (HA) of influenza B/Brisbane/60/08 (Victoria) (influenza B virus); experiment: cell-based or functional assay
[25] = target: hemagglutinin (HA) of influenza virus H1N2 A/Env/HK/MPU3156/05 (influenza A virus); experiment: cell-based or functional assay
[26] = target: hemagglutinin (HA) of influenza virus B/Lee/40 (Old) (influenza B virus) (UniProt P03460); experiment: cell-based or functional assay
[27] = target: hemagglutinin (HA) of influenza virus B/Harbin/7/94 (Yamagata) (influenza B virus); experiment: cell-based or functional assay
[28] = target: hemagglutinin (HA) of influenza virus H2N2 A/AnnArbor/23/57 (influenza A virus); experiment: cell-based or functional assay
[29] = target: hemagglutinin (HA) of influenza virus H5N1 A/Indonesia/5/05 (influenza A virus); experiment: cell-based or functional assay
[30] = target: hemagglutinin (HA) of influenza virus H6N8 A/Eurasian Wigeon/MPD411/07 (influenza A virus); experiment: cell-based or functional assay
[31] = target: hemagglutinin (HA) of influenza virus H7N9 A/Shanghai/2/13 (influenza A virus); experiment: cell-based or functional assay
[32] = target: hemagglutinin (HA) of influenza virus H7N7 A/Northern Shoveler/MPF518/08 (influenza A virus); experiment: cell-based or functional assay
[33] = target: hemagglutinin (HA) of influenza virus H10N9 A/Northern Shoveler/MPE2531/08 (influenza A virus); experiment: cell-based or functional assay
[34] = target: hemagglutinin (HA) of influenza virus H3N2 A/Hiroshima/52/05 (influenza A virus); experiment: cell-based or functional assay
[35] = target: hemagglutinin (HA) of influenza virus H1N1 A/Solomon Islands/3/2006 (IVR 145) (influenza A virus); experiment: cell-based or functional assay
[36] = target: hemagglutinin (HA) of influenza virus B/Florida/04/06 (Yamagata) (influenza B virus); experiment: cell-based or functional assay
[37] = target: recombinant HA of B/Brisbane/60/08 (Victoria) (influenza B virus); experiment: biolayer interferometry (Octet), steady-state fit, geometric mean, pH 7.4
[38] = target: recombinant HA of H3N2 A/Wisconsin/67/05 (influenza A virus); experiment: as above
[39] = target: recombinant HA of H7N3 A/NIBRG/60 (A/mallard/NL/12/00) (influenza A virus); experiment: as above
[40] = target: recombinant HA of H3N2 A/HK/1/68-MA (influenza A virus); experiment: as above
[41] = target: recombinant HA of H7N9 A/Hangzhou/1/2013 (influenza A virus); experiment: as above
[42] = target: recombinant HA of H1N1 A/Brisbane/59/07 (influenza A virus); experiment: as above

B1: MD2407 (bispecific antibody)
chain: EVQLVESGGGLVQPGGSLRLSCAVSISIFDIYAMDWYRQAPGKQRDLVATSFRDGSTNYADSVKGRFTISRDNAKNTLYLQMNSLKPEDTAVYLCHVSLYRDPLGVAGGMGVYWGKGALVTVSSGGGGSGGGGSEVQLVESGGGLVQAGGSLKLSCAASGRTYAMGWFRQAPGKEREFVAHINALGTRTYYSDSVKGRFTISRDNAKNTEYLEMNNLKPEDTAVYYCTAQGQWRAAPVAVAAEYEFWGQGTQVTVSSGGGGSGGGGSEVQLVESGGGLVQPGGSLRLSCAATGFTLENKAIGWFRQTPGSEREGVLCISKSGSWTYYTDSMRGRFTISRDNAENTVYLQMDSLKPEDTAVYYCATTTAGGGLCWDGTTFSRLASSWGQGTQVTVSSGGGGSGGGGSEVQLVESGGGLVQPGGSLKLSCAASGFTFSTSWMYWLRQAPGKGLEWVSVINTDGGTYYADSVKDRFTISRDNAKDTLYLQMSSLKSEDTAVYYCAKDWGGPEPTRGQGTQVTVSS
- average neutralization titer [1]: 4.8 nM
- ADCC induction (EC50 grade, FcγRIIIa reporter bioassay) [2]: > 0.5 µg/mL
- average neutralization titer [3]: 10.3 nM
- average neutralization titer [4]: 19.6 nM
- average neutralization titer [5]: 20.6 nM
- average neutralization titer [6]: 9.9 nM
- average neutralization titer [7]: 57.4 nM
- average neutralization titer [8]: 19.1 nM
- average neutralization titer [9]: 33 nM
- average neutralization titer [10]: 10.6 nM
- average neutralization titer [11]: 9.2 nM
- average neutralization titer [12]: 25.9 nM
- average neutralization titer [13]: 4.8 nM
- average neutralization titer [14]: > 1000 nM
- average neutralization titer [15]: 7.3 nM
- average neutralization titer [16]: 19.2 nM
- average neutralization titer [17]: 64.6 nM
- average neutralization titer [18]: 8.2 nM
- average neutralization titer [19]: 3 nM
- average neutralization titer [20]: 3.4 nM
- average neutralization titer [21]: 19.2 nM
- average neutralization titer [22]: 76 nM
- average neutralization titer [23]: 13.2 nM
- ADCC induction (EC50 grade, FcγRIIIa reporter bioassay) [24]: > 0.5 µg/mL
- average neutralization titer [25]: 25.6 nM
- average neutralization titer [26]: 18.4 nM
- average neutralization titer [27]: 6.4 nM
- average neutralization titer [28]: 101 nM
- average neutralization titer [29]: 16.2 nM
- average neutralization titer [30]: 20.9 nM
- average neutralization titer [31]: 54.2 nM
- average neutralization titer [32]: 36.1 nM
- average neutralization titer [33]: 35 nM
- average neutralization titer [34]: 10.5 nM
- average neutralization titer [35]: 5.4 nM
- average neutralization titer [36]: 7.6 nM
- Kd [37]: 3.1 nM
- Kd [38]: 0.5 nM
- Kd [39]: 1.2 nM
- Kd [40]: 2.2 nM
- Kd [41]: 1.7 nM
- Kd [42]: 2.8 nM
